Experimental data as given in patent publication US20240327542A1 (published 2024).

These binders were tested against RAS-AMG510 (human;) (assay: cell binding (Raji), flow cytometry; apparent KD).
RAS-AMG510 (human;), sequence (P61769 whole entry): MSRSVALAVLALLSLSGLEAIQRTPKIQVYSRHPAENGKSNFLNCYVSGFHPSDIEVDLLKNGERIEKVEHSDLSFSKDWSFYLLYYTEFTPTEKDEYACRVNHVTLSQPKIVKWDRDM

Binder	Kd
AMRA11-2 hIgG1 (antibody, V domains shown) VH: EVQLVESGGGLVQPGGSLRLSCAASGFTISSSSIHWVRQAPGKGLEWVASISSYSSSTYYADSVKGRFTISADTSKNTAYLQMNSLRAEDTAVYYCARYPYGWGWGGSGLDYWGQGTLVTVSS VL: DIQMTQSPSSLSASVGDRVTITCRASQSVSSAVAWYQQKPGKAPKLLIYSASSLYSGVPSRFSGSRSGTDFTLTISSLQPEDFATYYCQQSSSSLITFGQGTKVEIKR	45 nM
AMRA3-18 hIgG1 (antibody, V domains shown) VH: EVQLVESGGGLVQPGGSLRLSCAASGFTVSYSSIHWVRQAPGKGLEWVASISSSSGYTSYADSVKGRFTISADTSKNTAYLQMNSLRAEDTAVYYCARYAWWAHGLDYWGQGTLVTVSS VL: DIQMTQSPSSLSASVGDRVTITCRASQSVSSAVAWYQQKPGKAPKLLIYSASSLYSGVPSRFSGSRSGTDFTLTISSLQPEDFATYYCQQGSYTYRLITFGQGTKVEIKR	57 nM
AMRA3-7 hIgG1 (antibody, V domains shown) VH: EVQLVESGGGLVQPGGSLRLSCAASGFTFSSYSIHWVRQAPGKGLEWVASIYSSYGYTSYADSVKGRFTISADTSKNTAYLQMNSLRAEDTAVYYCARGGWYPAMDYWGQGTLVTVSS VL: DIQMTQSPSSLSASVGDRVTITCRASQSVSSAVAWYQQKPGKAPKLLIYSASSLYSGVPSRFSGSRSGTDFTLTISSLQPEDFATYYCQQISYVYSLITFGQGTKVEIKR	20 nM
